# Experimental data: patent publication US20230173068A1 (BIO THERA SOLUTIONS, published 2023)
# B1: Simponi (golimumab), commercially available (antibody, human IgG1, kappa)
# heavy: not shown
# light: not shown
# notes: Bought product (Janssen Biologics B.V.); It differs from Antibody A by a higher NGNA glycosylation level; also called commercially available anti-TNF-α antibody; copies: 2 + 2
# Key:
# [1] = target: T1, FcRn-biotin (ACRO Biosystems, Cat #FCM-H82W4) (UniProt P55899 24-297; P61769 21-119, biotin (site not stated)); assay: BLI (Octet QKe), FcRn-biotin on SA biosensor, antibody as analyte
# T1 construct: Bought biotinylated protein, immobilised on a streptavidin (SA) biosensor; the natural receptor is a heterodimer of FCGRT and B2M
# T1 sequence (P55899 24-297 limits assumed, form in doubt, chain 1 of 2): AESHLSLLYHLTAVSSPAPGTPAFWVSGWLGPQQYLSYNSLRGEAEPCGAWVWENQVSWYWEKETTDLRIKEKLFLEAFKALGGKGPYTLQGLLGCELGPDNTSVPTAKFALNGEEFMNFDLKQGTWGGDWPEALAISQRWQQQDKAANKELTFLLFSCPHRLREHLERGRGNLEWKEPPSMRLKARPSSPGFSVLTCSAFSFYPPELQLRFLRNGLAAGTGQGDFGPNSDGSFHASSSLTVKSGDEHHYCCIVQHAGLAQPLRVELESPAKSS
# T1 sequence (P61769 21-119 limits assumed, form in doubt, chain 2 of 2): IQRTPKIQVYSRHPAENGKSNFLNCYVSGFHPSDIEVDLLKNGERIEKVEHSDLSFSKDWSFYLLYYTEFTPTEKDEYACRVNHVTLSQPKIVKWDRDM
# Protocol: The cycle of regeneration and neutralization was performed 3 times.
# [2] = target: T2, FcγRIIIa (F158)-biotin (ACRO Biosystems, Cat #CDA-H82E8) (UniProt P08637 17-208, biotin (site not stated)); assay: BLI (Octet QKe), FcγRIIIa (F158)-biotin on SA biosensor, antibody as analyte
# T2 construct: Bought biotinylated protein, immobilised on an SA biosensor
# T2 sequence (P08637 17-208 limits assumed): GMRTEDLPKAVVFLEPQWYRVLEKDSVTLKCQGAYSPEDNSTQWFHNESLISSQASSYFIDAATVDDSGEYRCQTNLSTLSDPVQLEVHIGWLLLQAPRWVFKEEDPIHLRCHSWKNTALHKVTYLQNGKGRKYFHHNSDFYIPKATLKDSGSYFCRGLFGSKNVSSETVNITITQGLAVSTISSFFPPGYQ
# Protocol: Specific experimental method for binding to FcγRIIIa (F158) were as follows. FcγRIIIa (F158)-biotin (ACRO Biosystems, Cat #CDA-H82E8) was diluted to 1 μg/mL. An SA Biosensor (Fertebio, Cat #18-5019) was immobilize in FcγRIIIa (F158)-biotin dilution to a signal of approximately 0.6 nm.
# The cycle of regeneration and neutralization was performed 3 times. The data was processed and analyzed using Data Analysis 8.2, and the sample data was fitted after sample blank (PBS) signal subtraction to obtain an affinity constant (KD).
# [3] = target: T3, FcγRIIIa (V158)-biotin (ACRO Biosystems, Cat #CDA-H82E9) (UniProt P08637 17-208, biotin (site not stated)); assay: BLI (Octet QKe), FcγRIIIa (V158)-biotin on SA biosensor, antibody as analyte
# T3 construct: Bought biotinylated protein, immobilised on an SA biosensor
# T3 sequence (P08637 17-208 F176V): as the sequence (P08637 17-208 limits assumed) above, with F160V counted along it
# Protocol: Specific experimental method for binding to FcγRIIIa (V158) were as follows. FcγRIIIa (V158)-biotin (ACRO Biosystems, Cat #CDA-H82E9) was diluted to 1 μg/mL. An SA Biosensor (Fertebio, Cat #18-5019) was immobilize in FcγRIIIa (V158)-biotin dilution to a signal of approximately 0.6 nm. […] The cycle of regeneration and neutralization was performed 3 times. The data was processed and analyzed using Data Analysis 8.2, and the sample data was fitted after sample blank (PBS) signal subtraction to obtain an affinity constant (KD).
binder,measurement,setting,value
B1,Kd,[1],6.09 to 8.67 nM
same,Kd,[2],93 to 111 nM
same,Kd,[3],20.1 to 42.2 nM
